According to US11827690B2, “ApoC-II mimetic peptides” (THE UNITED STATES OF AMERICA, as represented by the …, priority 2017, dated 2023):
Non-standard residues stand in square brackets, D forms with d. No end group written: not given here. Nle = CCCC[C@H](N)C(=O)O

Legend:
[1] = tested on: apoC-II knockout mice; test: plasma lipids of apoC-II knockout mice after peptide injection; assay type: in vivo
Experimental: C57Bl/6 mice (wild-type), apoC-II knockout (apoC-II KO) mice, and apoC-III transgenic mice were used for in vivo study. The C57Bl/6 mice (wild-type) were purchased from Taconic Biosciences Inc. The apoC-II KO mice were created as described in Sakurai et al., J Pharmacol Exp Ther 356:341-353, 2016. The apoC-III transgenic mice were generated by overexpressing human apoC-III in C57Bl/6 mice. See Qu et al., J. Lipid Res. 48:1476-1487, 2007.
Mice were fasted overnight (approximately 12 hours) before the study and 6 hours during the study, the next day. The apoC-II mimetic peptides were synthetically produced and free of biological contamination (not available as FDA approved compounds/treatment). […] W.) administered either subcutaneous injection (S.Q. or S.C.), intraperitoneal injection (I.P.) or intravenous injection (I.V.) (in a sterile, pharmaceutical grade PBS solution at a volume ≤200 μL) as described in Sakurai et al., J Pharmacol Exp Ther 356:341-353, 2016.

[2] = biological target: T1, LPL inhibited by apoC-III (Bos taurus, UniProt P11151); test: LPL assay using human apoC-II deficient plasma as substrate with recombinant apoC-III; assay type: biochemical; settings: 25 μM apoC-III, FIG. 50
T1 sequence (P11151 29-478): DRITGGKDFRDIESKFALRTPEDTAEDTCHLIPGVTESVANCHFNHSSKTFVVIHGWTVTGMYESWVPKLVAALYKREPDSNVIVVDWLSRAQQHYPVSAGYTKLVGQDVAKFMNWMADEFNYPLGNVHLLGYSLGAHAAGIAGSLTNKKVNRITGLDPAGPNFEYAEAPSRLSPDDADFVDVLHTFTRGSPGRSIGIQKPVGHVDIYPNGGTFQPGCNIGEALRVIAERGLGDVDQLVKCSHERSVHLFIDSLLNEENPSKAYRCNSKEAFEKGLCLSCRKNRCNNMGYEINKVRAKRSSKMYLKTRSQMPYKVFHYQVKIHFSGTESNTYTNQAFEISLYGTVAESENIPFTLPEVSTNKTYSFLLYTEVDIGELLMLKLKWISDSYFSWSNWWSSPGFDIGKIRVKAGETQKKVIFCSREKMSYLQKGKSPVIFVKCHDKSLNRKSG
Experimental: (§1) LPL activity assay: 10 μL of Intralipid, human plasma sample, or mouse plasma sample was added in each well using repeater pipette. 10 μL (or 15 μL in the wells with no LPL control) of PBS and 10 μL of 1% BSA was added in each well using repeater pipette. 10 μL of peptides were added to corresponding wells in vertical triplicates (lowest concentration is on a left, highest is on the right). The plate was spun down at 1000 RPM for 10 seconds to mix and to remove the solutions from the wall of each well. The plate was put on ice and 5 μL of LPL was added using repeater pipette. The plate was spun down again at 1000 RPM for 10 seconds. The plate was covered and put back on ice for an incubation of 30 min. The plate was then moved to 37° C. and incubated for 1 hour.
(§2) Free fatty acids (NEFA) assay: 45 μL of 5 nmoL standard and 0 nmoL control (0.2% BSA) were added to corresponding wells. 225 μL of reagent A was added in each well using the reagent tray and 12-channel pipette. The plate was incubated for 10 min before 75 μL of reagent B was added to each well using the reagent tray and 12-channel pipette. The plate was not covered due to the high volume. The absorbance at 550 nm and 660 nm was measured.
LPL assay was performed using Intralipid, high TG human plasma (1:50 dilution), or apoC-III transgenic mouse plasma (1:50 dilution). When Intralipid was used as a substrate, 25 or 50 μM recombinant ApoC-III was added as an inhibitor. When the high TG human plasma was used as a substrate, 25 or 50 μM recombinant ApoC-III was added as an inhibitor with or without pre-incubation at 37° C. for 1 hour. An apoC-II mimetic peptide was added at various concentrations.

[3] = biological target: T2, bovine LPL (Bos taurus, UniProt P11151); test: in vitro LPL assay using apoC-II deficient patient sera as substrate; assay type: biochemical
T2 sequence (P11151 29-478): T1 sequence (P11151 29-478)
Experimental: (§3) Preparation of LPL: frozen stock of 10 μL of 0.5 mg/mL bovine LPL was used and diluted 1:100 (10 μL+990 μL of PBS).
Preparation of 20% Intralipid: 2000 mg/dL TG Intralipid was used to prepare 3 mg/dL TG Intralipid by diluting 1.5 μL of the stock with 998.5 μL PBS, or by diluting the stock 1:10 first and then mixing 15 μL of the diluted stock with 985 μL PBS. When apoC-II deficient human serum was used as a substrate, a frozen 10 μL aliquot of 1711 mg/dL (TG) was diluted by adding 990 μL PBS (1:100 dilution).
(§4) Preparation of free fatty acid (NEFA) assay: NEFA reagents were purchased from Wako Diagnostics, Wako Life Sciences, Inc. Reagent A was prepared by mixing Coloring Reagent A with Solvent A (225 μL per well). Reagent B was prepared by mixing Coloring Reagent B with Solvent B (75 μL per well). 5 nmoL oleic acid standard was prepared by diluting 20 μL of 1 mM oleic acid stock (WAKO NEFA standard solution) with 180 μL of 0.2% BSA.
as §1, §2

[4] = tested on: VLDL isolated from human plasma; test: ApoC-III displacement study in VLDL isolated from human plasma; assay type: binding
Experimental: VLDL or chylomicrons isolated from human plasma were incubated with an apoC-II mimetic peptide for 1 hour at 37° C. and washed 3 times with PBS using spin filter with 100 kDa cutoff membrane. […] ApoC-I, apoC-II, apoC-III, and apoE bands were identified by their corresponding size.

[5] = tested on: chylomicrons isolated from human plasma; test: ApoC-III displacement study in chylomicrons isolated from human plasma; assay type: binding
Experimental: VLDL or chylomicrons isolated from human plasma were incubated with an apoC-II mimetic peptide for 1 hour at 37° C. and washed 3 times with PBS using spin filter with 100 kDa cutoff membrane. Supernatants were brought to the original volume with PBS and loaded to 4-12% Bis-TRIS SDS PAGE gel. ApoC-I, apoC-II, apoC-III, and apoE bands were identified by their corresponding size.

[6] = biological target: T2, bovine LPL; test: in vitro LPL assay using hypertriglyceridemia patient sera as substrate; assay type: biochemical
Experimental: as §3, §4, §1, §2

- affinity for the VLDL compared with the apolipoproteins [4]: higher affinity
- apoC-III displacement in VLDL ([4]; SDS PAGE): capable of displacing apoC-III
- affinity for chylomicrons compared with the apolipoproteins [5]: higher affinity
- LPL activation ([6]; patient sera TG about 1000 mg/dL to about 1700 mg/dL, FIGS. 15A-D): activated LPL in vitro
- LPL activity ([6]; sera of patients with high levels of apoC-III protein, FIG. 27): increased the LPL activity
Substance: DYLKEVFEKLRDLYEKFTAAnLSTYTGIFTDQVLSVLKGEE (DYLKEVFEKLRDLYEKFTAA[Nle]STYTGIFTDQVLSVLKGEE) [Delta6]
- plasma TG ([1]; 0.25, 0.5, and 1 μmol/kg of body weight intraperitoneally, all doses, FIG. 23): rapid and marked reduction of plasma TG
- plasma TG ([1]; intraperitoneal injection): rapid and marked reduction of plasma TG
- total cholesterol level ([1]; intraperitoneal injection): decrease in the total cholesterol level
- effect on inhibition of LPL by apoC-III [2]: overcame the inhibitory effect of apoC-III and facilitated lipolysis
- LPL activation compared with full length apoC-II protein ([3]; 10 pM to 10 μM, FIG. 51): activated LPL in vitro more efficiently than the full length apoC-II protein
- promoting TG hydrolysis in the presence of LPL ([3]; FIG. 6): capable of promoting TG hydrolysis in the presence of LPL
- efficiency compared with native apoC-II protein ([3]; at lower concentrations, FIG. 6): worked more efficiently than the native apoC-II protein
- TG hydrolysis ([3]; concentrations from 100 pM to 10 nM, FIG. 14): exhibited the ability to promote TG hydrolysis in a dose dependent matter
